# In article PMC6021111, “Murine leukemia virus p12 tethers the capsid-containing pre-integration complex to chromatin by binding directly to host nucleosomes in mitosis” (PLoS Pathogens, 2018):
# B1: unnamed (parent)
# chain 1: PALTPSLGAKPKPQVLSDSGGPLIDLLTEDPPPYRDPRPPPSDRDGNGGEATPAGEAPDPSPMASRLRGRREPPVADSTTSQAF
# chain 2: MAQILPIRFQEHLQLQNLGINPANIGFSTLTMESDKFICIREKVGEQAQVVIIDMNDPSNPIRRPISADSAIMNPASKVIALKAGKTLQIFNIEMKSKMKAHTMTDDVTFWKWISLNTVALVTDNAVYHWSMEGESQPVKMFDRHSSLAGCQIINYRTDAKQKWLLLTGISAQQNRVVGAMQLYSVDRKVSQPIEGHAASFAQFKMEGNAEESTLFCFAVRGQAGGKLHIIEVGTPPTGNQPFPKKAVDVFFPPEAQNDFPVAMQISEKHDVVFLITKYGYIHLYDLETGTCIYMNRISGETIFVTAPHEATAGIIGVNRKGQVLSVCVEEENIIPYITNVLQNPDLALRMAVRNNLAGAEELFARKFNALFAQGNYSEAAKVAANAPKGILRTPDTIRRFQSVPAQPGQTSPLLQYFGILLDQGQLNKYESLELCRPVLQQGRKQLLEKWLKEDKLECSEELGDLVKSVDPTLALSVYLRANVPNKVIQCFAETGQVQKIVLYAKKVGYTPDWIFLLRNVMRISPDQGQQFAQMLVQDEEPLADITQIVDVFMEYNLIQQCTAFLLDALKNNRPSEGPLQTRLLEMNLMHAPQVADAILGNQMFTHYDRAHIAQLCEKAGLLQRALEHFTDLYDIKRAVVHTHLLNPEWLVNYFGSLSVEDSLECLRAMLSANIRQNLQICVQVASKYHEQLSTQSLIELFESFKSFEGLFYFLGSIVNFSQDPDVHFKYIQAACKTGQIKEVERICRESNCYDPERVKNFLKEAKLTDQLPLIIVCDRFDFVHDLVLYLYRNNLQKYIEIYVQKVNPSRLPVVIGGLLDVDCSEDVIKNLILVVRGQFSTDELVAEVEKRNRLKLLLPWLEARIHEGCEEPATHNALAKIYIDSNNNPERFLRENPYYDSRVVGKYCEKRDPHLACVAYERGQCDLELINVCNENSLFKSLSRYLVRRKDPELWGSVLLESNPYRRPLIDQVVQTALSETQDPEEVSVTVKAFMTADLPNELIELLEKIVLDNSVFSEHRNLQNLLILTAIKADRTRVMEYINRLDNYDAPDIANIAISNELFEEAFAIFRKFDVNTSAVQVLIEHIGNLDRAYEFAERCNEPAVWSQLAKAQLQKGMVKEAIDSYIKADDPSSYMEVVQAANTSGNWEELVKYLQMARKKARESYVETELIFALAKTNRLAELEEFINGPNNAHIQQVGDRCYDEKMYDAAKLLYNNVSNFGRLASTLVHLGEYQAAVDGARKANSTRTWKEVCFACVDGKEFRLAQMCGLHIVVHADELEELINYYQDRGYFEELITMLEAALGLERAHMGMFTELAILYSKFKPQKMREHLELFWSRVNIPKVLRAAEQAHLWAELVFLYDKYEEYDNAIITMMNHPTDAWKEGQFKDIITKVANVELYYRAIQFYLEFKPLLLNDLLMVLSPRLDHTRAVNYFSKVKQLPLVKPYLRSVQNHNNKSVNESLNNLFITEEDYQALRTSIDAYDNFDNISLAQRLEKHELIEFRRIAAYLFKGNNRWKQSVELCKKDSLYKDAMQYASESKDTELAEELLQWFLQEEKRECFGACLFTCYDLLRPDVVLETAWRHNIMDFAMPYFIQVMKEYLTKVDKLDASESLRKEEEQATETQPIVYGQPQLMLTAGPSVAVPPQAPFGYGYTAPPYGQPQPGFGYSM
# B2: unnamed (parent)
# chain 1: B1 chain 1
# chain 2: MAELDPFGAPAGAPGGPALGNGVAGAGEEDPAAAFLAQQESEIAGIENDEAFAILDGGAPGPQPHGEPPGGPDAVDGVMNGEYYQESNGPTDSYAAISQVDRLQSEPESIRKWREEQMERLEALDANSRKQEAEWKEKAIKELEEWYARQDEQLQKTKANNRVADEAFYKQPFADVIGYVTNINHPCYSLEQAAEEAFVNDIDESSPGTEWERVARLCDFNPKSSKQAKDVSRMRSVLISLKQAPLVH
# B3: unnamed (parent)
# chain 1: B1 chain 1
# chain 2: MAQISSNSGFKECPSSHPEPTRAKDVDKEEALQMEAEALAKLQKDRQVTDNQRGFELSSSTRKKAQVYNKQDYDLMVFPESDSQKRALDIDVEKLTQAELEKLLLDDSFETKKTPVLPVTPILSPSFSAQLYFRPTIQRGQWPPGLPGPSTYALPSIYPSTYSKQAAFQNGFNPRMPTFPSTEPIYLSLPGQSPYFSYPLTPATPFHPQGSLPIYRPVVSTDMAKLFDKIASTSEFLKNGKARTDLEITDSKVSNLQVSPKSEDISKFDWLDLDPLSKPKVDNVEVLDHEEEKNVSSLLAKDPWDAVLLEERSTANCHLERKVNGKSLSVATVTRSQSLNIRTTQLAKAQGHISQKDPNGTSSLPTGSSLLQEVEVQNEEMAAFCRSITKLKTKFPYTNHRTNPGYLLSPVTAQRNICGENASVKVSIDIEGFQLPVTFTCDVSSTVEIIIMQALCWVHDDLNQVDVGSYVLKVCGQEEVLQNNHCLGSHEHIQNCRKWDTEIRLQLLTFSAMCQNLARTAEDDETPVDLNKHLYQIEKPCKEAMTRHPVEELLDSYHNQVELALQIENQHRAVDQVIKAVRKICSALDGVETLAITESVKKLKRAVNLPRSKTADVTSLFGGEDTSRSSTRGSLNPENPVQVSINQLTAAIYDLLRLHANSGRSPTDCAQSSKSVKEAWTTTEQLQFTIFAAHGISSNWVSNYEKYYLICSLSHNGKDLFKPIQSKKVGTYKNFFYLIKWDELIIFPIQISQLPLESVLHLTLFGILNQSSGSSPDSNKQRKGPEALGKVSLPLFDFKRFLTCGTKLLYLWTSSHTNSVPGTVTKKGYVMERIVLQVDFPSPAFDIIYTTPQVDRSIIQQHNLETLENDIKGKLLDILHKDSSLGLSKEDKAFLWEKRYYCFKHPNCLPKILASAPNWKWVNLAKTYSLLHQWPALYPLIALELLDSKFADQEVRSLAVTWIEAISDDELTDLLPQFVQALKYEIYLNSSLVQFLLSRALGNIQIAHNLYWLLKDALHDVQFSTRYEHVLGALLSVGGKRLREELLKQTKLVQLLGGVAEKVRQASGSARQVVLQRSMERVQSFFQKNKCRLPLKPSLVAKELNIKSCSFFSSNAVPLKVTMVNADPMGEEINVMFKVGEDLRQDMLALQMIKIMDKIWLKEGLDLRMVIFKCLSTGRDRGMVELVPASDTLRKIQVEYGVTGSFKDKPLAEWLRKYNPSEEEYEKASENFIYSCAGCCVATYVLGICDRHNDNIMLRSTGHMFHIDFGKFLGHAQMFGSFKRDRAPFVLTSDMAYVINGGEKPTIRFQLFVDLCCQAYNLIRKQTNLFLNLLSLMIPSGLPELTSIQDLKYVRDALQPQTTDAEATIFFTRLIESSLGSIATKFNFFIHNLAQLRFSGLPSNDEPILSFSPKTYSFRQDGRIKEVSVFTYHKKYNPDKHYIYVVRILREGQIEPSFVFRTFDEFQELHNKLSIIFPLWKLPGFPNRMVLGRTHIKDVAAKRKIELNSYLQSLMNASTDVAECDLVCTFFHPLLRDEKAEGIARSADAGSFSPTPGQIGGAVKLSISYRNGTLFIMVMHIKDLVTEDGADPNPYVKTYLLPDNHKTSKRKTKISRKTRNPTFNEMLVYSGYSKETLRQRELQLSVLSAESLRENFFLGGVTLPLKDFNLSKETVKWYQLTAATYL
# B4: unnamed (parent)
# chain 1: B1 chain 1
# chain 2: MLNMWKVRELVDKATNVVMNYSEIESKVREATNDDPWGPSGQLMGEIAKATFMYEQFPELMNMLWSRMLKDNKKNWRRVYKSLLLLAYLIRNGSERVVTSAREHIYDLRSLENYHFVDEHGKDQGINIRQKVKELVEFAQDDDRLREERKKAKKNKDKYVGVSSDSVGGFRYSERYDPEPKSKWDEEWDKNKSAFPFSDKLGELSDKIGSTIDDTISKFRRKDREDSPERCSDSDEEKKARRGRSPKGEFKDEEETVTTKHIHITQATETTTTRHKRTANPSKTIDLGAAAHYTGDKASPDQNASTHTPQSSVKTSVPSSKSSGDLVDLFDGTSQSTGGSADLFGGFADFGSAAASGSFPSQVTATSGNGDFGDWSAFNQAPSGPVASSGEFFGSASQPAVELVSGSQSALGPPPAASNSSDLFDLMGSSQATMTSSQSMNFSMMSTNTVGLGLPMSRSQNTDMVQKSVSKTLPSTWSDPSVNISLDNLLPGMQPSKPQQPSLNTMIQQQNMQQPMNVMTQSFGAVNLSSPSNMLPVRPQTNALIGGPMPMSMPNVMTGTMGMAPLGNTPMMNQSMMGMNMNIGMSAAGMGLTGTMGMGMPNIAMTSGTVQPKQDAFANFANFSK
# Variants of: B1
# Experiment: SILAC-MS of GST pull-down
# Details: with partner chain of the complex shown; mitotic 293T cell lysates; replicate R1
row,Variant,screen value (SDs from the mean)
1,chain 1 S65A R66A L67A R68A G69A,1

# Same assay, conditions: with partner chain of the complex shown; mitotic 293T cell lysates; replicate R2
row,Variant,screen value (SDs from the mean)
1,chain 1 S65A R66A L67A R68A G69A,2.3

# Variants of: B2
# Experiment: SILAC-MS of GST pull-down
# Details: with partner chain of the complex shown; mitotic 293T cell lysates; replicate R2
row,Variant,screen value (SDs from the mean)
1,chain 1 S65A R66A L67A R68A G69A,1.4

# Variants of: B3
# Experiment: SILAC-MS of GST pull-down
# Details: with partner chain of the complex shown; mitotic 293T cell lysates; replicate R1
row,Variant,screen value (SDs from the mean)
1,chain 1 S65A R66A L67A R68A G69A,1.4

# Same assay, conditions: with partner chain of the complex shown; mitotic 293T cell lysates; replicate R2
row,Variant,screen value (SDs from the mean)
1,chain 1 S65A R66A L67A R68A G69A,1.4

# Variants of: B4
# Experiment: SILAC-MS of GST pull-down
# Details: with partner chain of the complex shown; mitotic 293T cell lysates; replicate R1
row,Variant,screen value (SDs from the mean)
1,chain 1 S65A R66A L67A R68A G69A,1.4

# Same assay, conditions: with partner chain of the complex shown; mitotic 293T cell lysates; replicate R2
row,Variant,screen value (SDs from the mean)
1,chain 1 S65A R66A L67A R68A G69A,3.3
